The source of these data is patent US7033832.

The target of this assay is chicken N-cadherin (expressed from pMiwcN vector on LN2 mouse L cell transfectants) (chicken) (UniProt P10288). In words: flow cytometry of LN2 cells stained with NCD2 and FITC secondary antibody. (Flow cytometry measures light scatter and fluorescence of single cells or particles in a stream.)
Chain of UniProt P10288 (P10288 165-912): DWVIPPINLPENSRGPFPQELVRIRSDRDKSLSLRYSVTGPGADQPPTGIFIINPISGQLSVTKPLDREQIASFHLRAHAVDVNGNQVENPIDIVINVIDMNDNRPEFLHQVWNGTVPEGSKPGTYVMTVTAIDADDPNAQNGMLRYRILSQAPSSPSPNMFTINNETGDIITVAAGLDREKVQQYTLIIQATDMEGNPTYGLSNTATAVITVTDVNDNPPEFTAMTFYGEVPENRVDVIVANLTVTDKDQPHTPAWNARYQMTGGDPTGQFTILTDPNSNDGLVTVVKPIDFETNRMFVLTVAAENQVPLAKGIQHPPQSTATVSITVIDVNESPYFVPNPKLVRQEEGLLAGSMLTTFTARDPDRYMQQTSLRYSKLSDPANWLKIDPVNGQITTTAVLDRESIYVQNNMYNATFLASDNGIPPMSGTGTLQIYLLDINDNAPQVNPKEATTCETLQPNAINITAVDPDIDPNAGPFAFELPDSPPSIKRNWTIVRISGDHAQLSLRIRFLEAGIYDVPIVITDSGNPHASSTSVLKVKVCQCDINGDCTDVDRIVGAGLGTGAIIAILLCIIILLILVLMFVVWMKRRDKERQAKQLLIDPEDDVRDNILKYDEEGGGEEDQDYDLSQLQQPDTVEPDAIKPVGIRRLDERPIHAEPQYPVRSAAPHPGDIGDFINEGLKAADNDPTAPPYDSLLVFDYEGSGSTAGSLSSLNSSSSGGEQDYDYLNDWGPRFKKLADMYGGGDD

The substance “anti-chicken-N-Cadherin antibody (NCD2, Zymed, San Francisco, Calif.)” displayed a mean channel fluorescence (mcf) of 26.5 mcf.
